Where “and” joins values, the source holds several entries; their conditions need not be identical. Identical values can stand only once. Like-named read-outs stand apart in the source and are kept apart here.
T1: CD20-A170S P172S variant (human, UniProt P11836 1-297)
T1 construct: whole, on cells; also called CD20-AP; CD20AP
T1 sequence (looked up): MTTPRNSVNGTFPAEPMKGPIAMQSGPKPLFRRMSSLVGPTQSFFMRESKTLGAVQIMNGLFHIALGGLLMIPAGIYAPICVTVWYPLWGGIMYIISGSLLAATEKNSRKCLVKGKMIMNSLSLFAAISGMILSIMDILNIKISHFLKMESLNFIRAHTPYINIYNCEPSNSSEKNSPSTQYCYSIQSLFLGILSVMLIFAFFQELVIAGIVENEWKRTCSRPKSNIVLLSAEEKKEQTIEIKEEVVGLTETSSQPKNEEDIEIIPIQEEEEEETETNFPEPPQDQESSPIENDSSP

T2: human CD20 (human, UniProt P11836 1-297)
T2 construct: whole, on cells; Tetra-spanin type membrane antigen, always presented on cells; also called CD20 wildtype; wild type CD20
T2 sequence (looked up): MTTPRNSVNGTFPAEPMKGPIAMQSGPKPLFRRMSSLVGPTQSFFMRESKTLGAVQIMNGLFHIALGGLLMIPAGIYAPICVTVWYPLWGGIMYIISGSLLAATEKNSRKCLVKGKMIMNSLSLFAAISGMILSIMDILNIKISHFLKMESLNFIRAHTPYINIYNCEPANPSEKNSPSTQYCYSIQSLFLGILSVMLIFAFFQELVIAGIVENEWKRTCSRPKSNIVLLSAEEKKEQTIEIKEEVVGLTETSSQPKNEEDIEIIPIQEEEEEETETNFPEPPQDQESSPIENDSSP

B1: 2F2 (antibody, V domains shown)
VH: EVQLVESGGGLVQPGRSLRLSCAASGFTFNDYAMHWVRQAPGKGLEWVSTISWNSGSIGYADSVKGRFTISRDNAKKSLYLQMNSLRAEDTALYYCAKDIQYGNYYYGMDVWGQGTTVTVSS
VL: EIVLTQSPATLSLSPGERATLSCRASQSVSSYLAWYQQKPGQAPRLLIYDASNRATGIPARFSGSGSGTDFTLTISSLEPEDFAVYYCQQRSNWPITFGQGTRLEIK
B2: chCD20-4 (antibody, V domains shown)
VH: EVKVEESGGGLVKTGGSMKLSCVASGFSFNNYWMNWVRQSPEKGLEWVAEIRLKSNNYATHYVESVKGRFTISRDDSKSSVYLQMNNLRAEDTGIYYCTGWDDYAMDHWGQGISVTVSS
VL: DIVMTQSQKFMSTSVGDRVSVNCKASQNVGTNVAWYQQKPRQSPKGLIYSASFRYSGVPDRFTGSGSGTDFTLTIFNVQSDDLAEYFCQQYNNYPLTFGGGTKLEIKR
notes: Chimeric antibody: murine CD20-4 variable regions cloned in frame with human constant regions (plasmids pchCD20-4HCN and pchCD20-4LCZ), expressed in HEK-293T; the murine VL/VH entries 5 and 6 are used; a huIgG1 isotype control was used beside it; also called chimeric CD20-4
B3: huCD20-4-SMCC-DM1 (antibody, human IgG1, kappa, V domains shown)
VH: EVQVEESGGGLVQPGGSMRLSCVASGFSFNNYWMNWVRQSPGKGLEWVAEIRLKSNNYATHYVDSVKGRFTISRDDSKSSVYLQMNNLRAEDTGIYYCTGWDDYAMDHWGQGISVTVSS
VL: DIQMTQSPSTMSTSVGDRVSVNCKASQNVGTNVAWYQQKPGKSPKGLIYSASFRYSGVPSRFTGSGSGTDFTLTIFNVQPDDLAEYFCQQYNNYPLTFGGGTKLEIKR
modifications: DM1 linked through SMCC (thioether), 3.5-4 DM1 molecules per antibody; sites not stated
notes: also called huCD20-4-MCC-DM1
B4: huCD20-4 (antibody, human IgG1, kappa, V domains shown)
VH: EVQVEESGGGLVQPGGSMRLSCVASGFSFNNYWMNWVRQSPGKGLEWVAEIRLKSNNYATHYVDSVKGRFTISRDDSKSSVYLQMNNLRAEDTGIYYCTGWDDYAMDHWGQGISVTVSS
VL: DIQMTQSPSTMSTSVGDRVSVNCKASQNVGTNVAWYQQKPGKSPKGLIYSASFRYSGVPSRFTGSGSGTDFTLTIFNVQPDDLAEYFCQQYNNYPLTFGGGTKLEIKR
notes: Resurfaced antibody expressed in HEK-293T cells; also called humanized CD20-4; resurfaced CD20-4
B5: huCD20-4-SPP-DM1 (antibody, human IgG1, kappa, V domains shown)
VH: EVQVEESGGGLVQPGGSMRLSCVASGFSFNNYWMNWVRQSPGKGLEWVAEIRLKSNNYATHYVDSVKGRFTISRDDSKSSVYLQMNNLRAEDTGIYYCTGWDDYAMDHWGQGISVTVSS
VL: DIQMTQSPSTMSTSVGDRVSVNCKASQNVGTNVAWYQQKPGKSPKGLIYSASFRYSGVPSRFTGSGSGTDFTLTIFNVQPDDLAEYFCQQYNNYPLTFGGGTKLEIKR
modifications: DM1 linked through SPP (disulfide), 3.5-4 DM1 molecules per antibody; sites not stated
B6: muCD20-4 (antibody, mouse IgG2a, kappa, V domains shown)
VH: EVKVEESGGGLVKTGGSMKLSCVASGFSFNNYWMNWVRQSPEKGLEWVAEIRLKSNNYATHYVESVKGRFTISRDDSKSSVYLQMNNLRAEDTGIYYCTGWDDYAMDHWGQGISVTVSS
VL: DIVMTQSQKFMSTSVGDRVSVNCKASQNVGTNVAWYQQKPRQSPKGLIYSASFRYSGVPDRFTGSGSGTDFTLTIFNVQSDDLAEYFCQQYNNYPLTFGGGTKLEIKR
notes: Murine monoclonal antibody purified from hybridoma supernatant (ATCC PTA-10485 or PTA-10561); also called murine CD20-4
B7: huCD20-4-SPDB-DM4 (antibody, human IgG1, kappa, V domains shown)
VH: EVQVEESGGGLVQPGGSMRLSCVASGFSFNNYWMNWVRQSPGKGLEWVAEIRLKSNNYATHYVDSVKGRFTISRDDSKSSVYLQMNNLRAEDTGIYYCTGWDDYAMDHWGQGISVTVSS
VL: DIQMTQSPSTMSTSVGDRVSVNCKASQNVGTNVAWYQQKPGKSPKGLIYSASFRYSGVPSRFTGSGSGTDFTLTIFNVQPDDLAEYFCQQYNNYPLTFGGGTKLEIKR
modifications: DM4 linked through SPDB (disulfide), 3.5-4 DM4 molecules per antibody; sites not stated
B8: rituximab (antibody, V domains shown)
VH: QVQLQQPGAELVKPGASVKMSCKASGYTFTSYNMHWVKQTPGRGLEWIGAIYPGNGDTSYNQKFKGKATLTADKSSSTAYMQLSSLTSEDSAVYYCARSTYYGGDWYFNVWGAGTTVTVSA
VL: QIVLSQSPAILSASPGEKVTMTCRASSSVSYIHWFQQKPGSSPKPWIYATSNLASGVPVRFSGSGSGTSYSLTISRVEAEDAATYYCQQWTSNPPTFGGGTKLEIK
B9: chCD20-20 (antibody, V domains shown)
VH: QVQLQQSGAELARPGASVKLSCKASGYTFTSYWMHWVKQRPGQGLEWIGAIYPGDGDTRYTQKFKGKATLTADKSSYTAYMQLSSLASEDSAVYYCARSPDFYGSGYDFDYWGQGTTLTVSS
VL: DIKMTQSPSSMYTSLGERVTITCKASQDINSFLSWFQQKPGKSPKTLIYRAYRLVDGVPSRFSGSGSGQDYSLTISSLEFEDMGIYYCLQSGAFPLTFGAGTKLELKR
notes: Chimeric antibody: murine CD20-20 variable regions with human constant regions (equivalent plasmids to chCD20-4), expressed in HEK-293T; the murine VL/VH entries 7 and 8 are used; also called chimeric CD20-20
B10: muCD20-20 (antibody, mouse IgG1, kappa, V domains shown)
VH: QVQLQQSGAELARPGASVKLSCKASGYTFTSYWMHWVKQRPGQGLEWIGAIYPGDGDTRYTQKFKGKATLTADKSSYTAYMQLSSLASEDSAVYYCARSPDFYGSGYDFDYWGQGTTLTVSS
VL: DIKMTQSPSSMYTSLGERVTITCKASQDINSFLSWFQQKPGKSPKTLIYRAYRLVDGVPSRFSGSGSGQDYSLTISSLEFEDMGIYYCLQSGAFPLTFGAGTKLELKR
notes: Murine monoclonal antibody purified from hybridoma supernatant; also called murine CD20-20

What was measured:
CD20-A170S P172S variant [1] = target: T1, CD20-A170S P172S variant; experiment: flow cytometry, 300-19 cells transfected with CD20-A170S P172S, MFI against antibody concentration
CD20-A170S P172S variant [2] = target: T1, CD20-A170S P172S variant; experiment: as above; remark: listed apart in the source
human CD20 [3] = target: T2, human CD20; experiment: flow cytometry titration on BJAB cells, apparent Kd from the dose-response curve
Description: (§1) Data analysis was performed using CellQuest Pro (BD Biosciences, San Diego, US) and for each sample the mean fluorescence intensity for FL1 (MFI) was exported and plotted against the antibody concentration in a semi-log plot.
The value for the apparent dissociation constant (Kd) of each antibody was calculated using GraphPad Prism v4 (GraphPad software, San Diego, Calif.).

human CD20 [4] = target: T2, human CD20; experiment: cell-based or functional assay
human CD20 [5] = target: T2, human CD20; experiment: flow cytometry titration on BJAB cells, apparent Kd from the binding curve
Description: as §1

human CD20 [6] = target: T2, human CD20; experiment: cell-based or functional assay; remark: listed apart in the source
human CD20 [7] = target: T2, human CD20; experiment: flow cytometry, BJAB cells, MFI against antibody concentration
Description: as §1

human CD20 [8] = target: T2, human CD20; experiment: flow cytometry, 300-19 cells transfected with wild type human CD20, MFI against antibody concentration

Binder | Kd (human CD20 [3]) | EC50 of CDC, WSU-DLCL-2 cells, 5% human complement (human CD20 [4]) | Kd (human CD20 [5]) | EC50 of ADCC, Granta-519 cells, human NK cells, LDH release (human CD20 [4]) | EC50 of ADCC, SU-DHL-4 cells, human NK cells, LDH release (human CD20 [4]) | EC50 of CDC, Daudi cells, 5% human complement (human CD20 [4]) | EC50 of in vitro cytotoxicity (WST-8), Daudi cells (human CD20 [4]) | EC50 of in vitro cytotoxicity (WST-8), Ramos cells (human CD20 [4]) | also measured
B1 |  |  |  |  |  |  |  |  | EC50 (read off the curve) (CD20-A170S P172S variant [1]): ~2000 pM; EC50 (read off the curve) (CD20-A170S P172S variant [2]): ~4000 pM
B2 | 470 pM | 27 ng/mL |  |  |  |  |  |  | 
B3 |  | ~40 ng/mL | 900 pM | 0.28 ng/mL | 0.27 ng/mL | ~80 ng/mL | 210 pM | 220 pM and 350 pM | EC50 of in vitro cytotoxicity (WST-8), DOHH-2 cells (human CD20 [6]): 110 pM; EC50 of in vitro cytotoxicity (WST-8), Daudi cells (human CD20 [6]): 290 pM; EC50 of in vitro cytotoxicity (WST-8), Granta-519 cells (human CD20 [6]): 30 pM; EC50 of in vitro cytotoxicity (WST-8), Ramos cells (human CD20 [6]): 540 pM; EC50 of in vitro cytotoxicity (WST-8), SC-1 cells (human CD20 [6]): 600 pM
B4 | 460 pM | ~40 ng/mL | 1000 pM | 0.28 ng/mL and 0.29 ng/mL | 0.2 ng/mL | 50 ng/mL and ~50 ng/mL |  |  | EC50 (read off the curve) (human CD20 [7]): ~600 pM; binding result (CD20-A170S P172S variant [1]): no binding (tested: 1e-7 M); EC50 of ADCC, DOHH-2 cells, human NK cells, LDH release (human CD20 [4]): 0.57 ng/mL; EC50 of ADCC, JVM-13 cells, human NK cells, LDH release (human CD20 [4]): 0.097 ng/mL; EC50 of ADCC, Ramos cells, human NK cells, LDH release (human CD20 [4]): 0.4 ng/mL; EC50 of ADCC, WSU-DLCL-2 cells, human NK cells, LDH release (human CD20 [4]): 0.4 ng/mL; EC50 of CDC, Raji cells, 5% human complement (human CD20 [4]): 32 ng/mL; EC50 of CDC, Ramos cells, 5% human complement (human CD20 [4]): 10 ng/mL; EC50 of CDC, SU-DHL-4 cells, 5% human complement (human CD20 [4]): 30 ng/mL; EC50 (read off the curve) (human CD20 [8]): ~1000 pM
B5 |  |  | 1500 pM |  |  |  | 400 pM | 350 pM | 
B6 | 970 pM |  |  |  |  |  |  |  | 
B7 |  | ~40 ng/mL |  |  |  |  | 190 pM | 390 pM | 
B8 |  | 350 ng/mL and 190 ng/mL |  | 1.23 ng/mL | 0.53 ng/mL | 300 ng/mL |  |  | EC50 of ADCC, DOHH-2 cells, human NK cells, LDH release (human CD20 [4]): 1.08 ng/mL; EC50 of ADCC, JVM-13 cells, human NK cells, LDH release (human CD20 [4]): 0.29 ng/mL; EC50 of ADCC, Ramos cells, human NK cells, LDH release (human CD20 [4]): 3.5 ng/mL; EC50 of CDC, Raji cells, 5% human complement (human CD20 [4]): 110 ng/mL; EC50 of CDC, Ramos cells, 5% human complement (human CD20 [4]): 60 ng/mL; EC50 of CDC, SU-DHL-4 cells, 5% human complement (human CD20 [4]): 310 ng/mL
B9 | 420 pM | 84 ng/mL |  |  |  |  |  |  | EC50 (read off the curve) (human CD20 [8]): ~700 pM
B10 | 590 pM |  |  |  |  |  |  |  | 

Reference: US20110195022A1 (IMMUNOGEN, published 2011)
